The target in assay [1] is 14-3-3η (purified recombinant) (UniProt P68510). The assay can be described thus: fluorescence anisotropy, FITC peptide. To be noted: reference: unphosphorylated peptide …. For orientation: Fluorescence polarisation rises when a labelled molecule tumbles more slowly, as on binding a larger partner.
In assay [2] the target is 14-3-3η (endogenous) (UniProt Q04917). The assay can be described thus: GFP-Trap affinity purification, mass spectrometry. To be noted: sites S90.
The target of assay [3] is MAST1^DK ΔS90 ΔS161 (Mus musculus). Nature of the assay: FP.
Sequence of MAST1^DK ΔS90 ΔS161 (Mus musculus) (Q9R1L5 whole entry S90del/S161del): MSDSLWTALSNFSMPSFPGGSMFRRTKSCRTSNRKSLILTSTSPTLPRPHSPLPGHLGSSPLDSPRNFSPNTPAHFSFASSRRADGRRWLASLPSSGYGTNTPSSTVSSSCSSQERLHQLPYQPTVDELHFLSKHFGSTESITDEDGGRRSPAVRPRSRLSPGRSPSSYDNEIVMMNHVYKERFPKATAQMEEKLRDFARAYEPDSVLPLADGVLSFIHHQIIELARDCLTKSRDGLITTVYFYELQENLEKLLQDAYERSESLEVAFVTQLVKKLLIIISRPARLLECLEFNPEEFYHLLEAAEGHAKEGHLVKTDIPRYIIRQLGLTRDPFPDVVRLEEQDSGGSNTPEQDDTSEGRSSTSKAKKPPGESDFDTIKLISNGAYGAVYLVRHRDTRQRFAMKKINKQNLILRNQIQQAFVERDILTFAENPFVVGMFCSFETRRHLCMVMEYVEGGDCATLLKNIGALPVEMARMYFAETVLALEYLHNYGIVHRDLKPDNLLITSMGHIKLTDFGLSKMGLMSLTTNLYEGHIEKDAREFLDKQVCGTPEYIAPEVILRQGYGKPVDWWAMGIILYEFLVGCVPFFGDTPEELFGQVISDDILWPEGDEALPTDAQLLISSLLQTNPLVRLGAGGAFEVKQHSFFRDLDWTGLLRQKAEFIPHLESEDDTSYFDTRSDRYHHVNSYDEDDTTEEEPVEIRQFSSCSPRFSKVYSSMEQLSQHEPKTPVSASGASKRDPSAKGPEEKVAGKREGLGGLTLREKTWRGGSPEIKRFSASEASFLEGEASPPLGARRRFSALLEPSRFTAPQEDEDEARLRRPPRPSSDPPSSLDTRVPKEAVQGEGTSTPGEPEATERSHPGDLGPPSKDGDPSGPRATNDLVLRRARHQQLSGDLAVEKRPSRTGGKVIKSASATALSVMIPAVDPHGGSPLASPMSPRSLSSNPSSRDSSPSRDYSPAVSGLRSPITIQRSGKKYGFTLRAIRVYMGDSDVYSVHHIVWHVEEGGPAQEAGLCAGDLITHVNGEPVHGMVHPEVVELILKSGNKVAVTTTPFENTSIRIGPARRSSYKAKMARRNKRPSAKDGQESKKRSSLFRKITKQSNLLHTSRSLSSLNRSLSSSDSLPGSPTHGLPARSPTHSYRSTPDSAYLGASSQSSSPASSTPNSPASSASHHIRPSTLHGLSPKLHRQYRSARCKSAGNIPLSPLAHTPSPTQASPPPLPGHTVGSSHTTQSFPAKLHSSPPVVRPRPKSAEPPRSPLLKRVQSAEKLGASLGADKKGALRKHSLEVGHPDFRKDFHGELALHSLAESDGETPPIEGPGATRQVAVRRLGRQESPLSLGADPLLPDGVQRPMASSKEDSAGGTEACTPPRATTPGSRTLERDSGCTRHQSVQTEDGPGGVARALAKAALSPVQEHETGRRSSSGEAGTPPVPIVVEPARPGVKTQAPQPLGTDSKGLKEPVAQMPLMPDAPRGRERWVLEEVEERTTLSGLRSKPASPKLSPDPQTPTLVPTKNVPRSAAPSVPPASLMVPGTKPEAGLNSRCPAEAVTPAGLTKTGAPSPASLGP
For assay [4], the target named is 14-3-3η (purified, recombinant) (UniProt Q04917). The assay can be described thus: cross-linking + other: mass photometry; complex stabilised by glutaraldehyde cross-linking, then mass photometry (25 to 50 nM, 50 mM HEPES pH 7.4, 150 mM NaCl, 1 mM TCEP).
Sequence of 14-3-3η (purified, recombinant) (Q04917 whole entry): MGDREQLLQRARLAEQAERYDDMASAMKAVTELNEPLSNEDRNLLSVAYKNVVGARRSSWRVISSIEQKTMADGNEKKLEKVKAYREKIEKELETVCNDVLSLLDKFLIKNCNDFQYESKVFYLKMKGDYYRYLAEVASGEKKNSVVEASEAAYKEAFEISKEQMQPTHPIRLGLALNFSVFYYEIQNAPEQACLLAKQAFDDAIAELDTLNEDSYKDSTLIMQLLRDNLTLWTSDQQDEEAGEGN
Assay [5] shares this target. The assay can be described thus: SEC; complex formed in vitro: equimolar MAST1^D p-S90 and 14-3-3η, 30 min at room temperature, then analytical SEC (Superdex 200 Increase 3.2/300, 50 mM HEPES pH 7.4, 150 mM NaCl, 1 mM TCEP, 4 °C; 50 μL of 30 μM); Coomassie SDS-PAGE of fractions with gel densitometry. Background: SEC sorts molecules by how far they enter the pores of the column.

For assay [6], the target named is GST-tagged 14-3-3η (coexpressed with MAST1^DK) (UniProt Q04917). Nature of the assay: cross-linking + other: mass photometry; complex stabilised by glutaraldehyde cross-linking, then mass photometry (25 to 50 nM, 50 mM HEPES pH 7.4, 150 mM NaCl, 1 mM TCEP).
Sequence of GST-tagged 14-3-3η (coexpressed with MAST1^DK) (Q04917 whole entry): as above
The target is the same in assay [7]. The assay can be described thus: SEC; complex coexpressed in Sf9, affinity-purified by the GST tag of 14-3-3η, then analytical SEC (Superdex 200 Increase 3.2/300, 50 mM HEPES pH 7.4, 150 mM NaCl, 1 mM TCEP, 4 °C); Coomassie SDS-PAGE of fractions with gel densitometry.

Turning to “MAST1 85-97 (from UniProt Q9R1L5) p-S90 peptide”, the “binding against the reference” value in assay [1] (sites S90) is “gained”.
Regarding “MAST1 156-168 (from UniProt Q9R1L5) p-S161 peptide”, the “binding against the reference” value in assay [1] (sites S161) is “gained”.
With “MAST1 MAST1DKP (from UniProt Q9R1L5) S90A”, the “binding against the reference” value in assay [2] (reference: wild type) is given as “weaker”.
With “MAST1 MAST1DKP (from UniProt Q9R1L5) S90A S161A”, the “binding against the reference” value in assay [2] (reference: S161A single mutant (S90 intact)) is reported as “weaker”.
The Kd is the concentration at which binding is half-saturated. The low end stands for higher affinity, the high end for lower affinity. Take MAST1^153-166 WT: the Kd in assay [3] was 1170 µM.
On to “MAST1^D p-S90 (from UniProt Q9R1L5 1-1570) (domain or fragment)”, for which the stoichiometry N (MAST1:14-3-3η) in assay [4] and in assay [5] was 0.5 throughout.
“MAST1^DK (copurified with 14-3-3η) (from UniProt Q9R1L5 1-1570) (domain or fragment)”: the stoichiometry N (MAST1:14-3-3η) in assay [6] and in assay [7] was 0.5 throughout.

The values above are taken from publication PMC13598245.
